Laboratory results from patent US20100056445A1, “ADIPONECTIN FOR THE TREATMENT AND DIAGNOSIS OF ALBUMINURIA” (THOMAS JEFFERSON UNIVERSITY, priority 2006, published 2010).
“Also recorded” adds a separate entry of the source.

System: AMPK
Experiment: Glomerular AMPK activity (p-AMPKα immunostain) in adiponectin KO mouse kidney
Assay type: in vivo
Conditions: adiponectin KO mice, adiponectin (gAd) treatment
Method: Immunohistochemistry: Immunocytochemistry was performed as described previously (30). Differentiated podocytes seeded on coverslips were serum-Starved overnight and globular adiponectin was added. After 24 hours of adiponectin introduction, cells were fixed in 3.7% paraformaldehyde. Incubation with primary antibody p-AMPKα at 1:50 dilution (Cell Signaling Technology) was performed in blocking solution at 4° C. overnight Cells were then incubated with secondary anti rabbit IgG conjugated to an immunofluorescent dye (Alexa 594, Invitrogen, Carisbad, Calif.) for 30 minutes at room temperature. Nuclear stain was performed with Hoechst 33342 (Invitrogen). Fluorescence pictures were obtained using confocal laser fluorescence microscope (LSM-510, Carl Zeiss, Jena, Germany). Immunostaining of paraffin-embedded mouse kidney was performed as described previously (26) with p-AMPKα (Thr172) rabbit monoclonal antibody (31). Quantitation of p-AMPKα positive cells was performed on 50 glomeruli from 4 mice in each group.
Immunohistochemistry: Immunocytochemistry was performed as described previously (30). […] Fluorescence pictures were obtained using confocal laser fluorescence microscope (LSM-510, Carl Zeiss, Jena, Germany). […] Quantitation of p-AMPKa positive cells was performed on 50 glomeruli from 4 mice in each group. […] Images were captured by confocal laser fluorescence microscope.

B1: adiponectin: 30 kDa adipocyte-secreted protein; in the first series of tests the recombinant globular domain was used, later gAd or fAd (protein, UniProt Q15848 19-244, looked up)
Adiponectin: ETTTQGPGVLLPLPKGACTGWMAGIPGHPGHNGAPGRDGRDGTPGEKGEKGDPGLIGPKGDIGETGVPGAEGPRGFPGIQGRKGEPGEGAYVYRSAFSVGLETYVTIPNMPIRFTKIFYNQQNHYDGSTGKFHCNIPGLYYFAYHITVYMKDVKVSLFKKDKAMLFTYDQYQENNVDQASGSVLLHLEVGDQVWLQVYGEGERNGLYADNDNDSTFTGFLLYHDTN
AMPK activity in glomerular podocytes (p-AMPKα positive cells per glomerulus): improved; also recorded: increased
